From patent publication US12516145B2 (priority 2019, dated 2026)

Key:
[1] = Dynamic light scattering (hydrodynamic size); format: physicochemical; conditions: for Dh: hydrodynamic diameter by DLS, photo-PISA at solids content of 15 wt. %; for Rh: hydrodynamic radius by DLS; for hydrodynamic diameter / size by DLS: in water (DIW)
Description: (§2) Dynamic Light Scattering (DLS) and Zeta Potential Analysis: DLS and zeta potential analyses were conducted at room temperature on a Zetasizer Nano-ZS (Malvern). The laser for DLS was at a wavelength of 633 nm.

[2] = Transmission electron microscopy (particle size); format: physicochemical; conditions: for Rcore: estimated by TEM analysis
Description: Dry-State Transmission Electron Microscopy (TEM): Twenty microliters of samples were applied onto a 400 mesh carbon grids (Ted Pella, INC.). The grids were observed on a Hitachi HT 7700 microscope operating at 120 kV. The images were recorded with a slow-scan charge-coupled device (CCD) camera (Veleta 2k×2k).

HeLa cells [3] = test: CellTiter-Blue cell viability assay of nanoparticles (Example 2); format: cell-based, human; conditions: 72 h; for cytotoxicity in HeLa cells: 37 °C, concentration with respect to total KLA peptide content
Description: Fluorescence Measurement: CellTiter-Blue® fluorescence measurements were recorded using a Perkin Elmer EnSpire multimode Plate Reader.
HeLa cells were grown in Dulbecco's modified Eagle medium (DMEM) supplemented with 10% fetal bovine serum (FBS), 1% penicillin-streptomycin. Cells were maintained at 37° C. and 5% CO2 with a relative humidity of 95%. HeLa cells were plated in 96-well plates at a density of 5000 per well and then left to attach for 24 h. Subsequently, the cells were treated with the polymers of various concentrations for the desired time followed by washing 3 times with PBS. Then CellTiter-Blue® at 10% (v/v) in complete media was added to each well and incubated for 2 h to allow the live cells to convert resazurin to fluorescent resorufin. The fluorescent signal (Excitation wavelength: 560 nm; Emission wavelength: 600 nm) was then analyzed by a plate reader. Three replicates were performed for each independent sample. 10% DMSO was used as a positive control and untreated cells in complete medium as a negative control. Viability is reported as a percentage of untreated cells.

Zeta potential analysis = format: physicochemical; conditions: room temperature
Description: as §2

thermolysin [4] = test: thermolysin in DPBS solution, molar ratio of thermolysin to peptide 1:300; conditions: 55° C.
thermolysin [5] = molecular target: T1, thermolysin (Bacillus thermoproteolyticus, UniProt P00800); conditions: for morphology change of micelles after treatment with thermolysin: TEM and DLS, spherical micelles before treatment
Description: Transmission Electron Microscope (TEM): Twenty microliters of sample were applied onto a 400 mesh carbon grids (Ted Pella, INC.). The grids were observed on a Hitachi HT 7700 microscope operating at 120 kV. The images were recorded with a slow-scan charge-coupled device (CCD) camera (Veleta 2k×2k).
Dynamic Light Scattering (DLS): DLS analysis was conducted at room temperature on a Zetasizer Nano-ZS (Malvern). The laser for DLS was at a wavelength of 633 nm.
(§1) For enzyme-triggered cleavage experiments, the molar ratio of thermolysin to peptide was set to 1:300. Moreover, the temperature was set to 55° C. to achieve the optimal activity of thermolysin. For example, poly(PepAm21-co-DMA24) (P4, 1 mg, 0.87 μmol with respect to peptides, 300 equiv.) was dissolved in 1 ml of DPBS solution. Then thermolysin (0.1 mg, 2.9 nmol, 1 equiv.) was added into the polymer solution which was stirred in a preheated oil bath at 55° C. In the case of control experiments which involved using deactivated thermolysin, EDTA (100 equiv. to thermolysin) was utilized to capture the zinc and calcium ions, resulting in denaturing of thermolysin.

HeLa cells [6] = test: Flow cytometry for uptake ability in HeLa cells (Example 1); format: cell-based, human; conditions: rhodamine B-labeled, 0.25 μM with respect to dye, 24 hours
Description: Flow Cytometry: The cell uptake study was analyzed via flow cytometry using a BD FacsAria Ilu 4-Laser flow cytometer (Becton Dickinson Inc., USA). Mean fluorescence intensity and PE-A-histogram data was prepared for presentation using FlowJo v10.
For cellular uptake measurements, HeLa cells were plated in 12-well plates at a density of 1,000,000 per well and incubated for 24 hours in a 5% CO2 atmosphere at 37° C. 500 μL of 0.25 μM (with respect to rhodamine) KLA peptide, poly(KLAAm25-co-DMA75), poly(KLAAm25-co-DMA25), and poly(KLAAm10) in 10% FBS DMEM media without phenol red were incubated with the cells for 24 hours respectively. After triple washing with DPBS, 500 μL of 0.25% Trypsin-EDTA was added to each well for 10 min at 37° C. Cells were fixed with a 4% paraformaldehyde solution for 15 min at room temperature.

trypsin [7] = test: trypsin (0.1 μM) in PBS buffer (pH=7.4), molar ratio of trypsin to peptide 1:2000; conditions: 37° C.
thermolysin [8] = molecular target: T1, thermolysin; conditions: thermolysin 1/300 equiv. to peptides, 55 °C, DPBS, HPLC
Description: Analytical High-Performance Liquid Chromatography (HPLC): Analytical HPLC analysis of peptides was performed on a Jupiter 4μ Proteo 90A Phenomenex column (150×4.60 mm) using a Hitachi-Elite LaChrom L-2130 pump equipped with UV-Vis detector (Hitachi-Elite LaChrom L2420).
as §1

HeLa cells [9] = test: CellTilter-Blue cell viability assay of KLA based materials (Example 1); parameters: species or system human; conditions: even at 100 μM with respect to peptide, 72 hours, 37 °C
Description: Hela cells were purchased from ATCC. Cells were cultured at 37° C. under 5% CO2 in phenol-red containing Dulbecco's Modified Eagle Medium (DMEM; Gibco Life Tech., cat. #11960-044) supplemented with 10% fetal bovine serum (Omega Scientific, cat. #11140-050), sodium pyruvate (Gibco Life Tech., cat. #35050-061), L-glutamine (Gibco Life Tech., cat. #35050-061), and the antibiotics penicillin/streptomycin (Corning Cellgro, cat. #30-002-C1). Cells were grown in T75 culture flasks and subcultured at ˜75-80% confluency.
The cytotoxicity of materials was assessed using the CellTilter-Blue assay. HeLa cells were plated at a density of 5000 cells per well in a 96 well plate 18 hours prior to treatment. Materials were dissolved in DPBS at the desired concentration and added to the wells along with a 10% DMSO positive control. Cells were incubated for 72 hours at 37° C. Note that the concentration of all the materials is with respect to the peptide concentration to ensure that all peptides and polymers are fairly compared with respect to their therapeutic components. The media was removed and 80 μL of new media without phenol red was added followed by adding 20 μL of CellTilter-Blue reagent. The cells were incubated for 3 hours at 37° C. The fluorescence was measured at 560 nm excitation and 590 nm emission wavelength.

trypsin [10] = test: Trypsin-induced cleavage (proteolytic resistance) by RP-HPLC; format: in vitro ADME; conditions: isolated enzyme trypsin; trypsin 0.1 μM, 200 μM peptide, PBS pH 7.4, 37 °C; read-out: peptide cleaved by trypsin within 1 h
Description: For protease-triggered cleavage experiments, the molar ratio of trypsin to peptide was set to 1:2000. Moreover, the temperature was set to 37° C. to match the body temperature. For example, poly[(KLAAm10-co-DMA30)-b-(DAAm70-co-DMA30)](NP1, 0.9 mg, 0.2 μmol with respect to peptides, 2000 equiv.) was dissolved in 1 ml of DPBS solution. […] During the cleavage, aliquots were taken for HPLC analysis at predetermined time points.

[11] = cited from earlier work
[12] = amine groups; cited from earlier work
[13] = test system: mitochondrial membrane potential of HeLa cells; test: Mitochondria membrane potential of HeLa cells with JC-1 probe; format: cell-based, human; conditions: 2 μM JC-1, excitation 488 nm, NP5 even after 30 min incubation
Description: HeLa cells were plated in 4-well, glass bottom dishes at 30,000 cells per well in 500 μL medium. […] The cells were stained with 2 μM of JC-1 at 37° C. for 15 minutes, washed with PBS to remove any membrane-bound, non-internalized fluorophores, and returned to complete medium. For the positive control group, the cells were incubated with 50 μM CCCP and 2 μM of JC-1 probe in DPBS solution simultaneously for 15 min. Before the confocal observation, 1 drop of Hoechst 33342 dye was added to stain the nuclei. Confocal microscope was employed to observe the fluorescence of JC-1 monomer, J-aggregates and Hoechst dye.

T1 sequence (P00800 233-548): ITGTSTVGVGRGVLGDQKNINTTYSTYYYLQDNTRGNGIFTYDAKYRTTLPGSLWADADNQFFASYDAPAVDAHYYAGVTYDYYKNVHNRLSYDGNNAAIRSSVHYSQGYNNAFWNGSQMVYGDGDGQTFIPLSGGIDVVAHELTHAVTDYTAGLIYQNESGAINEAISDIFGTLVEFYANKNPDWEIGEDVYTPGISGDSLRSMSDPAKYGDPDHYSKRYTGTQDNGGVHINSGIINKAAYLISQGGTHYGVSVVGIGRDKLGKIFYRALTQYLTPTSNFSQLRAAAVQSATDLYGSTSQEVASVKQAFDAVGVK

poly[(KLAAm10-co-DMA30)-b-(DAAm280-co-DMA120)] (KLAKLAKKLAKLAK) [NP3, KLA peptide brush polymer nanoparticle]
Dh [1]: 105 nm
Rh [1]: 52 nm
Rcore [2]: 46 nm
cytotoxicity in HeLa cells (HeLa cells [3]): dose-dependent cytotoxicity
Zeta potential (Zeta potential analysis): 48 mV

GPLGLAGG
cleaved bond (thermolysin [4]): glycine (G)-leucine (L)

PMMA90-b-poly(PepAm9-co-DMA30) [P7]
morphology change of micelles after treatment with thermolysin (thermolysin [5]): transition from spherical micelle to fused worm micelles

PMMA90-b-poly(PepAm21-co-DMA63) [P8]
morphology change of micelles after treatment with thermolysin (thermolysin [5]): phase transition into a worm-like phase
change in particle diameter with deactivated thermolysin (thermolysin [5]; thermolysin pretreated with ethylenediaminetetraacetic acid, same cleavage conditions, DLS): no change in diameter
hydrodynamic diameter / size by DLS [1]: 28 nm
diameter / average size by TEM ([2]; dry-state TEM): 24 nm

NP2: KLA peptide brush polymer nanoparticle: shell KLAAm 10, DMA 30; core DAAm 140, DMA 60 (KLAKLAKKLAKLAK)
Dh [1]: 62 nm
Rh [1]: 31 nm
Rcore [2]: 28 nm
Zeta potential (Zeta potential analysis): 56 mV

poly(KLAAm10)
cellular uptake by flow cytometry (HeLa cells [6]): clearly outperformed more sparsely grafted polypeptide brushes

PnBA200-b-poly(PepAm36-co-DMA123) [P9]
morphology change of micelles after treatment with thermolysin (thermolysin [5]): transition from spherical micelle to a mixture of micelles and fiber structure

poly[(KLAAm10-co-DMA10)-b-(DAAm140-co-DMA60)] (KLAKLAKKLAKLAK) [NP4, KLA peptide brush polymer nanoparticle]
Dh [1]: 64 nm

KLAKLAKKLAKLAK
fragment found (trypsin [7]): LAK

poly[(KLAAm10-co-DMA30)-b-(DAAm70-co-DMA30)] (KLAKLAKKLAKLAK) [NP1, KLA peptide brush polymer nanoparticle]
Dh [1]: 36 nm
Rh [1]: 18 nm
Rcore [2]: 13 nm
Zeta potential (Zeta potential analysis): 47 mV

poly(PepAm21-co-DMA71) [P4]
hydrodynamic diameter / size by DLS [1]: < 10 nm
time within which thermolysin-induced peptide cleavage was complete (thermolysin [8]): ≤ 1 h

poly(PepAm6-co-DMA7) [P1]
time within which thermolysin-induced peptide cleavage was complete (thermolysin [8]): ≤ 1 h

CC(C)C[C@H](NC(=O)[C@H](CCCCN)NC(=O)[C@H](C)NC(=O)[C@H](CC(C)C)NC(=O)[C@H](CCCCN)NC(=O)[C@H](CCCCN)NC(=O)[C@H](C)NC(=O)[C@H](CC(C)C)NC(=O)[C@H](CCCCN)NC(=O)[C@H](C)NC(=O)[C@H](CC(C)C)NC(=O)[C@@H](N)CCCCN)C(=O)N[C@@H](C)C(=O)N[C@@H](CCCCN)C(N)=O [KLA peptide, KLAKLAKKLAKLAK, reference compound]
cytotoxicity to HeLa cells (HeLa cells [9]): did not exhibit cytotoxicity
metabolised at 1 h, 200 μM (trypsin [10]): 100%

C=CC(=O)NCCCCCC(=O)N[C@@H](CCCCN)C(=O)N[C@@H](CC(C)C)C(=O)N[C@@H](C)C(=O)N[C@@H](CCCCN)C(=O)N[C@@H](CC(C)C)C(=O)N[C@@H](C)C(=O)N[C@@H](CCCCN)C(=O)N[C@@H](CCCCN)C(=O)N[C@@H](CC(C)C)C(=O)N[C@@H](C)C(=O)N[C@@H](CCCCN)C(=O)N[C@@H](CC(C)C)C(=O)N[C@@H](C)C(=O)N[C@@H](CCCCN)C(N)=O [KLAAm]
maximum concentration in water [11]: about 100 mM
pKa [12]: 9
cytotoxicity to HeLa cells (HeLa cells [9]): did not exhibit cytotoxicity
metabolised at 1 h, 200 μM (trypsin [10]): 100%

poly(KLAAm25-co-DMA25)
cellular uptake by flow cytometry (HeLa cells [6]): clearly outperformed more sparsely grafted polypeptide brushes

poly[(KLAAm10-co-DMA10)-b-(DAAm280-co-DMA120)] (KLAKLAKKLAKLAK) [NP5, KLA peptide brush polymer nanoparticle]
Dh [1]: 92 nm
red fluorescence of JC-1 J-aggregates (mitochondrial membrane potential) [13]: almost no red emission
cytotoxicity in HeLa cells (HeLa cells [3]): dose-dependent cytotoxicity
toxicity compared between nanoparticles (HeLa cells [3]; HeLa cells): significantly higher than NP3
